Test results published in patent US20220107327A1, “MULTI-TARGET CROSSLINKERS AND USES THEREOF” (The Regents of the University of California, published 2022).

What was measured:
[1] = molecular target: SSB (single-stranded DNA binding protein) (UniProt P0AGE0 P0AGE0:2-178); assay: covalent crosslinking with NHQM + 365 nm UV, denaturing TBE-urea gel shift; 1.5 uM DNA, 0.2 mg/mL SSB, 37 C 30 min; no crosslink with BS3 or UV alone; conditions: chain copies: 4
[2] = molecular target: the molecule itself; assay: NHSF or BS2G cross-linking of purified GST; SDS-PAGE and Western blot under reducing and denatured conditions (homodimer)

Sequence of SSB (single-stranded DNA binding protein) (P0AGE0 2-178, one chain of several): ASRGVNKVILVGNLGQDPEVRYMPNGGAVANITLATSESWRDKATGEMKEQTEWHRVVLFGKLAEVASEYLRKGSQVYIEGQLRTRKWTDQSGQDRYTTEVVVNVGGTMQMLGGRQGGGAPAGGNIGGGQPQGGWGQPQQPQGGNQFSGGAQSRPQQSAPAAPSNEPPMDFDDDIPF

B1: 19(3x) (ssDNA)
DNA: TGTAGCTGTTGATCTAAGTTGTAGCTGTTGATCTAAGTTGTAGCTGTTGATCTAAGT
binding result [1]: binds

B2: E. coli wild type glutathione S-transferase (GST) (enzyme)
chain: MKLFYKPGACSLASHITLRESGKDFTLVSVDLMKKRLENGDDYFAVNPKGQVPALLLDDGTLLTEGVAIMQYLADSVPDRQLLAPVNSISRYKTIEWLNYIATELHKGFTPLFRPDTPEEYKPTVRAQLEKKLQYVNEALKDEHWICGQRFTIADAYLFTVLRWAYAVKLNLEGLEHIAAFMQRMAERPEVQDALSAEGLKHHHHHH
notes: Written as the single subunit
binding result [2]: binds

B3: ATC(4x) (ssDNA)
DNA: AATTCGCCAATGACAAGACGCTGGGCGGGGCCGGATCCATCATCATCATCTAGAAGCT
binding result [1]: binds
